Source: the supplement of paper PMC7125110
± gives the standard error. For part of these data: Fewer inactive variants are shown than the library holds.

B1: glmS ribozyme (parent)
chain: AUAAAAGCGCCAGAACUACAGAAAUGUAGUUGACGAGGAGGAGGUUUAUCGAAUUUUCGGCGGAUGCCUCCAAA

How the values were obtained:
Details in all cases: with glucosamine-6-phosphate
glucosamine-6-phosphate [1] = variants of: B1; assay: kcat; higher = faster cleavage; RNA array
Outline: (§1)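 Weighted Michaelis–Menten fits across concentrations supplied kcat and KM, based on kobs from one- or two-exponential decay fits to normalised per-tile medians. The data came from barcoded ribozyme variants transcribed in situ by E. coli RNA polymerase on sequenced MiSeq chips and tracked at 37 °C by a hybridised Cy3 probe. Glucosamine-6-phosphate (40 μM to 10 mM) in HEPES/KCl/Mg(OAc)2 buffer was flowed in.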

glucosamine-6-phosphate [2] = variants of: B1; assay: KM; higher = weaker cofactor use; RNA array
Outline: as §1

glucosamine-6-phosphate [3] = variants of: B1; assay: self-cleavage kobs at 2500 uM GlcN6P; higher = faster cleavage; RNA array
Outline: as §1

glucosamine-6-phosphate [4] = variants of: B1; assay: self-cleavage kobs at 10000 uM GlcN6P; higher = faster cleavage; RNA array
Outline: as §1

glucosamine-6-phosphate [5] = variants of: B1; assay: self-cleavage kobs at 40 uM GlcN6P; higher = faster cleavage; RNA array
Outline: as §1

glucosamine-6-phosphate [6] = variants of: B1; assay: self-cleavage kobs at 160 uM GlcN6P; higher = faster cleavage; RNA array
Outline: as §1

glucosamine-6-phosphate [7] = variants of: B1; assay: self-cleavage kobs at 640 uM GlcN6P; higher = faster cleavage; RNA array
Outline: as §1

Variant | kcat (glucosamine-6-phosphate [1]) [s⁻¹] | KM (glucosamine-6-phosphate [2]) [µM] | self-cleavage kobs at 2500 uM GlcN6P (glucosamine-6-phosphate [3]) [s⁻¹] | self-cleavage kobs at 10000 uM GlcN6P (glucosamine-6-phosphate [4]) [s⁻¹] | self-cleavage kobs at 40 uM GlcN6P (glucosamine-6-phosphate [5]) [s⁻¹] | self-cleavage kobs at 160 uM GlcN6P (glucosamine-6-phosphate [6]) [s⁻¹] | self-cleavage kobs at 640 uM GlcN6P (glucosamine-6-phosphate [7]) [s⁻¹]
A6C A12C | 4.52e-05 ± 3.2e-06 | 1190 ± 370 | 2.86e-05 ± 7.1e-06 | 4.11e-05 ± 6.6e-06 |  |  | 
C10A U30C A53G C67A | 1.94e-05 ± 4e-06 |  |  |  |  |  | 
C11A G32A | 1.09e-05 ± 7.8e-07 |  |  |  |  |  | 
C11G G51A | < 1e-05 | 30.6 ± 15 |  | < 1e-05 | < 1e-05 |  | 
A6G U30A | 5.86e-05 ± 1.4e-05 |  | 3.73e-05 ± 1e-05 | 4.4e-05 ± 1.9e-05 |  |  | 
C10U C67A | 1.13e-05 ± 2.7e-06 |  |  |  |  |  | 
C10U C70U | 2.53e-05 ± 1.3e-06 | 777 ± 240 | 1.83e-05 ± 8e-06 | 2.38e-05 ± 7e-06 |  |  | 
C10U C70G | 2.35e-05 ± 4.9e-06 |  | 2.76e-05 ± 1.3e-05 |  |  |  | 
C10U A64G | 3.72e-05 ± 4.4e-06 |  | 3.75e-05 ± 5.1e-06 | 3.21e-05 ± 5.8e-06 |  |  | 
C10U C11U | 3.12e-05 ± 1.5e-05 |  |  |  | < 1e-05 | < 1e-05 | 
A6U U30C U31G | 9.88e-05 ± 6.8e-06 | 7220 ± 1100 |  | 5.74e-05 ± 1.6e-05 |  |  | 
A6C U45G | < 1e-05 |  |  |  |  |  | 
A6G A14C U54G | 3.49e-05 ± 4.1e-06 |  | 3.32e-05 ± 1.2e-05 | 3.47e-05 ± 1.5e-05 |  |  | 
C11A A36U G37C | < 1e-05 |  |  |  | < 1e-05 |  | 
G7U C67U | < 1e-05 |  | < 1e-05 |  | < 1e-05 | < 1e-05 | 
G7U C67G | < 1e-05 |  | < 1e-05 |  |  |  | 
G7U G38C | < 1e-05 |  |  | < 1e-05 | < 1e-05 |  | < 1e-05
C10A C71A | 1.51e-05 ± 2.9e-06 |  |  |  |  |  | 
C10A C71G | 3.78e-05 ± 1.3e-05 |  |  |  |  |  | 5.99e-05 ± 2e-05
C10A A12U C71U | 1.55e-05 ± 6.5e-07 | 21.5 ± 9.2 |  |  |  |  | 
C10A C61A | 2.22e-05 ± 9.1e-06 |  |  |  | < 1e-05 |  | 
A6G C10A | < 1e-05 |  |  | < 1e-05 | < 1e-05 |  | 
C10G C50A C71U | 1.87e-05 ± 3.4e-06 |  |  | < 1e-05 |  |  | 
C10G G59A | < 1e-05 |  |  |  | < 1e-05 | < 1e-05 | 
G7A G32A C50G | 4.21e-05 ± 1.3e-05 |  | 6.89e-05 ± 2.8e-05 |  | 4.2e-05 ± 1.6e-05 | 4.85e-05 ± 1.9e-05 | 

Variant | kcat (glucosamine-6-phosphate [1]) [s⁻¹] | KM (glucosamine-6-phosphate [2]) [µM] | self-cleavage kobs at 2500 uM GlcN6P (glucosamine-6-phosphate [3]) [s⁻¹] | self-cleavage kobs at 10000 uM GlcN6P (glucosamine-6-phosphate [4]) [s⁻¹] | self-cleavage kobs at 40 uM GlcN6P (glucosamine-6-phosphate [5]) [s⁻¹] | self-cleavage kobs at 160 uM GlcN6P (glucosamine-6-phosphate [6]) [s⁻¹] | self-cleavage kobs at 640 uM GlcN6P (glucosamine-6-phosphate [7]) [s⁻¹]
A6U U55G | 0.00137 ± 0.00067 |  | 0.000118 ± 1.9e-05 | 0.000416 ± 6.4e-05 |  |  | 4.48e-05 ± 1e-05
C11G A12C | 0.000156 ± 3.2e-05 |  | 6.61e-05 ± 1.2e-05 | 0.00011 ± 1.3e-05 |  |  | 
C10U G38U | < 1e-05 |  |  |  |  |  | 
G9A U31A | 2.13e-05 ± 6.3e-07 |  |  |  | < 1e-05 | < 1e-05 | < 1e-05
A6U U49A | < 1e-05 |  |  | < 1e-05 |  | < 1e-05 | 
A6C A53G | 0.000117 ± 1e-05 | 3110 ± 770 | 4.95e-05 ± 7.6e-06 | 8.97e-05 ± 7.3e-06 |  |  | 3.04e-05 ± 1.3e-05
C10A A42C | < 1e-05 | 2410 ± 820 |  |  | < 1e-05 | < 1e-05 | < 1e-05
A6U U31C | 3.19e-05 ± 7.8e-07 | 647 ± 96 |  | 2.97e-05 ± 1.2e-05 |  |  | 
A6U A52U | < 1e-05 |  |  | < 1e-05 |  | < 1e-05 | 
A6U A52G | < 1e-05 |  |  |  |  | < 1e-05 | < 1e-05
C11U A14U C16G | 0.000375 ± 7.9e-05 |  | 6.42e-05 ± 2.5e-05 | 0.000164 ± 3.4e-05 |  |  | 
G9A C34G C67A | < 1e-05 |  | < 1e-05 |  |  |  | 
A6C C67A | 3.57e-05 ± 2.8e-07 | 1260 ± 54 |  | 3.18e-05 ± 9.1e-06 |  |  | 
A6C C67U | 2.53e-05 ± 7.4e-07 | 660 ± 160 |  | 2.36e-05 ± 7.4e-06 | < 1e-05 | < 1e-05 | 
G7A A14C | 1.34e-05 ± 5.9e-06 |  |  |  | < 1e-05 |  | 
G7A A53U | 2.79e-05 ± 1.1e-05 |  |  |  |  |  | 
A6C C16U | 0.000207 ± 4.9e-05 |  | 3.13e-05 ± 9e-06 | 8.88e-05 ± 1.1e-05 |  |  | 
A6C U55A | 9.15e-05 ± 2.5e-05 |  | 7.01e-05 ± 1.6e-05 | 7.27e-05 ± 1.2e-05 |  |  | 
A6U A36C G38A A52U | 1.37e-05 ± 2.9e-06 |  |  | < 1e-05 |  |  | < 1e-05
C11A U30A C50U | 2.21e-05 ± 3.2e-06 |  |  |  |  |  | 
A6G G37U | < 1e-05 |  |  | < 1e-05 | < 1e-05 | < 1e-05 | 
C10A C68A | 1.98e-05 ± 3.8e-06 |  |  |  |  |  | 
C8G G37U | < 1e-05 |  |  |  |  | < 1e-05 | 
C10A A14C C71A | 2.17e-05 ± 9.3e-06 |  |  |  |  |  | 
